Holding throughout (assay): cell_activity
Series [1] deals with TAT-F121-KRAB (QSHT-RSHR-RDHT) (artificial). Particulars: 293 cells.
Series [2] concerns TAT-F475-KRAB (QSHR2-RDHT-RSNR) (artificial).
Series [3] has as its system TAT-F475-p65 (QSHR2-RDHT-RSNR) (artificial). Particulars: +/-0.48, 293 cells.
Series [4] has as its system TAT-F435-KRAB/KOX (QSHR2-RDHT-RSHR) (artificial). Particulars: +/-0.35, VEGF mRNA, 293 cells; protein 2.7 fold; H460 3.8 fold at 12 h (p247).
Series [5] has as its system TAT-F435-p65 (QSHR2-RDHT-RSHR) (artificial). Conditions: +/-0.5, secreted VEGF at 48 h, 293 cells, lysate.

Chain of TAT-F475-KRAB (QSHR2-RDHT-RSNR) (artificial) (chain, as listed by the source): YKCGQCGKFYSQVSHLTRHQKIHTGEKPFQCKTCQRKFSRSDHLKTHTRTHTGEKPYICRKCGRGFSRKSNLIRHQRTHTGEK
Chain of TAT-F121-KRAB (QSHT-RSHR-RDHT) (artificial) (chain, as listed by the source): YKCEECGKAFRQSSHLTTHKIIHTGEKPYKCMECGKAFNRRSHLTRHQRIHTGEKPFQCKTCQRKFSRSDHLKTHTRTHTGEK
Chain of TAT-F435-KRAB/KOX (QSHR2-RDHT-RSHR) (artificial) (chain, as listed by the source): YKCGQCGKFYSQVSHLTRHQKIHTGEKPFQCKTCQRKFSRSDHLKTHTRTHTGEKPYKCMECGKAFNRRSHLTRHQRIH

On to “native human VEGF promoter in pGL3-basic luciferase reporter”, for which the activity (fold repression) in series [1] (+/-0.14, purified protein) is 2.1; in series [2] (80 ug lysate, HEK293, 1.5 fold at 40 ug, vs TAT-only), 2. In series [3], the activity (fold activation) was 2.5.

For endogenous VEGF-A gene, the activity (fold repression) in series [1] (+/-0.01, VEGF mRNA, lysate) was determined as 1.7; in series [4] it was 3.1; in series [2] (+/-0.4, VEGF mRNA, 293 cells), 3.1. In series [5], this substance returned an activity (fold activation) of 2.5.

Source of the values: patent US20060182736.
